Here are results for four molecules from patent US20220153847A1 (Chugai, published 2022).

For test [1], the target named is DQ2.5/alpha 1 gliadin peptide on IHW9023 cells (human). Put plainly: cell-based or functional assay.
Test [2] deals with DQ2.5/alpha 2 gliadin peptide on IHW9023 cells (human). In words: cell-based or functional assay.
Test [3] deals with DQ2.5/omega 1 gliadin peptide on IHW9023 cells (human). In words: cell-based or functional assay.
Test [4] addresses DQ2.5/alpha 1b gliadin peptide on IHW9023 cells (human). Put plainly: cell-based or functional assay.
Test [5] addresses T1, HLA-DQ2.5/33mer gliadin peptide complex on Ba/F3 cells (human).
T1 construct: whole, on cells; also called Ba/F3-HLA-DQ2.5/33mer gliadin
Put plainly: FACS, Ba/F3 cells; IC17=0%, DQN0139bb=100%.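 Further: flow cytometric binding of anti-HLA-DQ antibodies, each applied at 5 µg/mL for 30 min at room temperature, to Ba/F3 cell lines displaying HLA-DQ–peptide complexes; antibody tested at 5 microgram/mL.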 For orientation: A flow cytometer gives signals particle by particle.
Excerpt: (§1) The binding of anti-HLA-DQ antibodies to Ba/F3-HLA-DQ2.5, Ba/F3-HLA-DQ2.2, Ba/F3-HLA-DQ7.5, Ba/F3-HLA-DQ8, Ba/F3-HLA-DQ5.1, Ba/F3-HLA-DQ6.3, Ba/F3-HLA-DQ7.3, Ba/F3-HLA-DR, Ba/F3-HLA-DP, Ba/F3-HLA-DQ2.5/CLIP, Ba/F3-HLA-DQ2.5/HBV, Ba/F3-HLA-DQ2.5/Salmonella, Ba/F3-HLA-DQ2.5/TPO, Ba/F3-HLA-DQ2.5/M. bovis, Ba/F3-HLA-DQ2.5/alpha 1 gliadin, Ba/F3-HLA-DQ2.5/alpha 2 gliadin, Ba/F3-HLA-DQ2.5/gamma 1 gliadin, Ba/F3-HLA-DQ2.5/gamma 2 gliadin, Ba/F3-HLA-DQ2.5/omega 1 gliadin, Ba/F3-HLA-DQ2.5/omega 2 gliadin, Ba/F3-HLA-DQ2.5/BC hordein, Ba/F3-HLA-DQ2.5/alpha 3 gliadin, Ba/F3-HLA-DQ2.5/alpha 1b gliadin, Ba/F3-HLA-DQ2.5/gamma 4b gliadin, Ba/F3-HLA-DQ2.5/avenin 1, Ba/F3-HLA-DQ2.5/avenin 2, Ba/F3-HLA-DQ2.5/avenin 3, Ba/F3-HLA-DQ2.5/hordein 1, Ba/F3-HLA-DQ2.5/hordein 2, Ba/F3-HLA-DQ2.5/secalin 1, Ba/F3-HLA-DQ2.5/secalin 2, Ba/F3-HLA-DQ2.5/14mer 1, Ba/F3-HLA-DQ2.5/33mer gliadin, Ba/F3-HLA-DQ2.5/26mer gliadin, was tested. 5 microgram/mL of each of the anti-HLA-DQ antibodies was incubated with each cell line for 30 minutes at room temperature and washed with FACS buffer (2% FBS, 2 mM EDTA in PBS).

The target in test [6] is T2, HLA-DQ2.5/alpha 1 gliadin peptide complex on Ba/F3 cells (human).
T2 construct: whole, on cells; also called Ba/F3-HLA-DQ2.5/alpha 1 gliadin; HLA-DQ2.5/a1 gliadin
In words: FACS, Ba/F3 cells; IC17=0%, DQN0139bb=100%.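 Further: flow cytometric binding of anti-HLA-DQ antibodies, each applied at 5 µg/mL for 30 min at room temperature, to Ba/F3 cell lines displaying HLA-DQ–peptide complexes; antibody tested at 5 microgram/mL.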
Excerpt: as §1

In test [7] the target is T3, HLA-DQ2.5/alpha 2 gliadin peptide complex on Ba/F3 cells (human).
T3 construct: whole, on cells; also called Ba/F3-HLA-DQ2.5/alpha 2 gliadin; HLA-DQ2.5/a2 gliadin
Put plainly: FACS, Ba/F3 cells; IC17=0%, DQN0139bb=100%.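 Further: flow cytometric binding of anti-HLA-DQ antibodies, each applied at 5 µg/mL for 30 min at room temperature, to Ba/F3 cell lines displaying HLA-DQ–peptide complexes; antibody tested at 5 microgram/mL.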
Excerpt: as §1

For test [8], the target named is T4, HLA-DQ2.5/gamma 1 gliadin peptide complex on Ba/F3 cells (human).
T4 construct: whole, on cells; also called Ba/F3-HLA-DQ2.5/gamma 1 gliadin; HLA-DQ2.5/g1 gliadin
In words: FACS, Ba/F3 cells; IC17=0%, DQN0139bb=100%.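 Further: flow cytometric binding of anti-HLA-DQ antibodies, each applied at 5 µg/mL for 30 min at room temperature, to Ba/F3 cell lines displaying HLA-DQ–peptide complexes; antibody tested at 5 microgram/mL.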
Excerpt: as §1

Test [9] deals with T5, HLA-DQ2.5/omega 1 gliadin peptide complex on Ba/F3 cells (human).
T5 construct: whole, on cells; also called Ba/F3-HLA-DQ2.5/omega 1 gliadin; HLA-DQ2.5/w1 gliadin
In words: FACS, Ba/F3 cells; IC17=0%, DQN0139bb=100%.
Excerpt: as §1

Test [10] concerns the target T6, HLA-DQ2.5/alpha 3 gliadin peptide complex on Ba/F3 cells (human).
T6 construct: whole, on cells; also called Ba/F3-HLA-DQ2.5/alpha 3 gliadin; HLA-DQ2.5/a3 gliadin
In words: FACS, Ba/F3 cells; IC17=0%, DQN0139bb=100%.
Excerpt: as §1

Test [11] concerns the target T7, HLA-DQ2.5/alpha 1b gliadin peptide complex on Ba/F3 cells (human).
T7 construct: whole, on cells; also called Ba/F3-HLA-DQ2.5/alpha 1b gliadin; HLA-DQ2.5/a1b gliadin
In words: FACS, Ba/F3 cells; IC17=0%, DQN0139bb=100%.
Excerpt: as §1

Test [12] addresses T8, HLA-DQ2.5/gamma 4b gliadin peptide complex on Ba/F3 cells (human).
T8 construct: whole, on cells; also called Ba/F3-HLA-DQ2.5/gamma 4b gliadin; HLA-DQ2.5/g4b gliadin
Put plainly: FACS, Ba/F3 cells; IC17=0%, DQN0139bb=100%.
Excerpt: as §1

Test [13] has as its target T9, HLA-DQ2.5/avenin 1 peptide complex on Ba/F3 cells (human).
T9 construct: whole, on cells; also called Ba/F3-HLA-DQ2.5/avenin 1
In words: FACS, Ba/F3 cells; IC17=0%, DQN0139bb=100%.
Excerpt: as §1

For test [14], the target named is T10, HLA-DQ2.5/avenin 2 peptide complex on Ba/F3 cells (human).
T10 construct: whole, on cells; also called Ba/F3-HLA-DQ2.5/avenin 2
Put plainly: FACS, Ba/F3 cells; IC17=0%, DQN0139bb=100%.
Excerpt: as §1

Test [15] has as its target T11, HLA-DQ2.5/avenin 3 peptide complex on Ba/F3 cells (human).
T11 construct: whole, on cells; also called Ba/F3-HLA-DQ2.5/avenin 3
Put plainly: FACS, Ba/F3 cells; IC17=0%, DQN0139bb=100%.
Excerpt: as §1

Test [16] concerns the target T12, HLA-DQ2.5/hordein 1 peptide complex on Ba/F3 cells (human).
T12 construct: whole, on cells; also called Ba/F3-HLA-DQ2.5/hordein 1
In words: FACS, Ba/F3 cells; IC17=0%, DQN0139bb=100%.
Excerpt: as §1

The target of test [17] is T13, HLA-DQ2.5/secalin 1 peptide complex on Ba/F3 cells (human).
T13 construct: whole, on cells; also called Ba/F3-HLA-DQ2.5/secalin 1
In words: FACS, Ba/F3 cells; IC17=0%, DQN0139bb=100%.
Excerpt: as §1

The target of test [18] is T14, HLA-DQ2.5/secalin 2 peptide complex on Ba/F3 cells (human).
T14 construct: whole, on cells; also called Ba/F3-HLA-DQ2.5/secalin 2
In words: FACS, Ba/F3 cells; IC17=0%, DQN0139bb=100%.
Excerpt: as §1

The target in test [19] is T15, HLA-DQ2.5/26mer gliadin peptide complex on Ba/F3 cells (human).
T15 construct: whole, on cells; also called Ba/F3-HLA-DQ2.5/26mer gliadin
Put plainly: FACS, Ba/F3 cells; IC17=0%, DQN0139bb=100%.
Excerpt: as §1

The target of a further test is T16, HLA-DQ6.3 on Ba/F3 cells (human, UniProt P01920 33-230, limits assumed).
T16 construct: whole, on cells; also called Ba/F3-HLA-DQ6.3
T16 MHC II alpha: not shown
T16 MHC II beta: not shown
In words: FACS on Ba/F3-HLA-DQ6.3 cells, single antibody concentration, goat F(ab')2 anti-human IgG-PE.

In test [20] the target is DQ2.5/omega 2 gliadin peptide on IHW9023 cells (human). Put plainly: cell-based or functional assay.
Test [21] deals with DQ2.5/gamma 1 gliadin peptide on IHW9023 cells (human). In words: cell-based or functional assay.
The target in test [22] is DQ2.5/gamma 2 gliadin peptide on IHW9023 cells (human). In words: cell-based or functional assay.
For test [23], the target named is DQ2.5/BC hordein peptide on IHW9023 cells (human). In words: cell-based or functional assay.
The target in test [24] is DQ2.5/gamma 4a gliadin peptide on IHW9023 cells (human). In words: cell-based or functional assay.
Test [25] concerns the target T17, HLA-DQ2.5/CLIP peptide complex on Ba/F3 cells (human).
T17 construct: whole, on cells; also called Ba/F3-HLA-DQ2.5/CLIP
Put plainly: FACS, Ba/F3 cells; IC17=0%, DQN0139bb=100%.
Excerpt: as §1

The target in test [26] is T18, HLA-DQ2.5/gamma 2 gliadin peptide complex on Ba/F3 cells (human).
T18 construct: whole, on cells; also called Ba/F3-HLA-DQ2.5/gamma 2 gliadin; HLA-DQ2.5/g2 gliadin
In words: FACS, Ba/F3 cells; IC17=0%, DQN0139bb=100%.
Excerpt: as §1

Test [27] has as its target T19, HLA-DQ2.5/omega 2 gliadin peptide complex on Ba/F3 cells (human).
T19 construct: whole, on cells; also called Ba/F3-HLA-DQ2.5/omega 2 gliadin; HLA-DQ2.5/w2 gliadin
Put plainly: FACS, Ba/F3 cells; IC17=0%, DQN0139bb=100%.
Excerpt: as §1

Test [28] addresses T20, HLA-DQ2.5/BC hordein peptide complex on Ba/F3 cells (human).
T20 construct: whole, on cells; also called Ba/F3-HLA-DQ2.5/BC hordein
In words: FACS, Ba/F3 cells; IC17=0%, DQN0139bb=100%.
Excerpt: as §1

Test [29] has as its target T21, HLA-DQ2.5/hordein 2 peptide complex on Ba/F3 cells (human).
T21 construct: whole, on cells; also called Ba/F3-HLA-DQ2.5/hordein 2
In words: FACS, Ba/F3 cells; IC17=0%, DQN0139bb=100%.
Excerpt: as §1

For test [30], the target named is T22, HLA-DQ2.5/14mer 1 peptide complex on Ba/F3 cells (human).
T22 construct: whole, on cells; also called Ba/F3-HLA-DQ2.5/14mer 1
In words: FACS, Ba/F3 cells; IC17=0%, DQN0139bb=100%.
Excerpt: as §1

Test [31] addresses T23, HLA-DQ2.5 on HLA-DQ2.5-positive PBMC B cells (human, UniProt P01909 24-254; P01920 33-261).
T23 construct: whole, on cells; also called HLA-DQ2.5+ PBMC B cell
T23 MHC II alpha: not shown
T23 MHC II beta: not shown
In words: FACS, PBMC B cells; IC17=0%, DQN0139bb=100%.

The target of test [32] is HLA-DQ2.5/33mer gliadin peptide on IHW9088 cells (human). Put plainly: cell-based or functional assay.

T17 sequence (P04233 96-124, chain 2 of 2, other chains not shown): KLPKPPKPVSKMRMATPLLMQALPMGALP

B1: DQN0344xx (antibody, V domains shown)
VH: QSLEESGGGLVKPGGTLTLTCTASGFSFSSSYWMCWVRQAPGKGLEWVACVYGGSDTTYYASWTKGRFTISKGSSTTVALQVTSLTAADTATYFCARDPLNYYYYGELNLWGPGTLVTVSS
VL: AVVLTQTASPVSAAVGGTVTIRCQATENIYSGLAWYQQKPGQPPKVLIYYVSTLASGVPSRFKGSGSGTEYTLTISGVQCDDAATYYCQTYHDISNVTFGGGTKVEIK
B1: the “IC50, Jurkat NFAT-Luc T cell activation” value came out at 0.00998 mg/L in [1], 0.00082 mg/L in test [2], 0.0124 mg/L in [3] and 0.0272 mg/L in [4]. Moreover, the “% MFI” value in [5] was 107%; in test [6], 77.1%; in test [7] it was 69.5%; in test [8], 0.4%; in test [9] it was 49.5%; in [10], 42.2%. Moreover, the “% MFI” value in [11] was determined as 66.6%; in test [12], 1%; in test [13], 60.9%; in test [14], 48.6%; in test [15], 48.4%; in test [16], 18.8%. Further, the “% MFI” value was 52.2% in test [17], 37.6% in [18] and 3.2% in test [19].

B2: IC17 (antibody, V domains shown)
VH: QVQLQQSGPQLVRPGASVKISCKASGYSFTSYWMHWVNQRPGQGLEWIGMIDPSYSETRLNQKFKDKATLTVDKSSSTAYMQLSSPTSEDSAVYYCALYGNYFDYWGQGTTLTVSS
VL: DIQMTQSSSSFSVSLGDRVTITCKASEDIYNRLAWYQQKPGNAPRLLISGATSLETGVPSRFSGSGSGKDYTLSITSLQTEDVATYYCQQYWSTPYTFGGGTKLEVK
notes: also called IC17 bivalent; TC17
Take B2: in the test with HLA-DQ6.3 on Ba/F3 cells, the binding result was “no binding (tested: 5 microgram/mL)”.

B3: DQN0385ee (antibody, V domains shown)
VH: QEQLEESGGDLVKPGASLTLTCTASGFSFYSSYWICWVRQAPGKGLEWIACIDTGSGSIDYASWVNGRFTISKTSSTTVTLQMTSLTVADTATYFCARDIGIDYNFWGPGTLVTVSS
VL: AFELTQTPSFVEAAVGGTVTIKCQATQSISSYLNWYQQKPGQPPKLLIYYASTLASGVPSRFKGSGSGTEFSLTISGVECADAATYYCHYGISYVSFGGGTKVEIK
notes: also called DQN0385xx
Turning to B3, the “IC50, Jurkat NFAT-Luc T cell activation” value in [2] was 0.000264 mg/L; in test [20], 0.000758 mg/L; in test [21], 0.0217 mg/L; in test [22] it was 4.9 mg/L; in test [23] it was 0.0164 mg/L; in test [4], 0.64 mg/L. Besides, the “IC50, Jurkat NFAT-Luc T cell activation” value in [24] is 0.381 mg/L. Further, the “% MFI” value in [25] was 4.4%; in test [5] it was 56.2%; in test [6], 9.7%; in test [7], 70.9%; in [8] it was 57.7%; in test [26], 20.6%. Also, the “% MFI” value in test [9] stood at 16.5%; in [27], 53%; in test [28], 61.8%; in test [10], 59.7%; in test [11], 20.3%; in test [12], 53.6%. Besides, the “% MFI” value is 19.1% in test [13]; 28% in [14]; 18.2% in test [16]; 71.4% in test [29]; 32.5% in test [18]; 70.7% in test [30]. The “% MFI” value in test [19] stood at 70.8%; in test [31], 1%.

B4: DQN0139bb (antibody, V domains shown)
VH: QSLEESGGRLVTPGTALTLTCTVSGFSLSSYAMGWVRQAPGKGLEYIGWTSPGDSAYYASWTKGRFTISRTSTTVELKITSPTTEDTATYFCARDAAYIGHWAFNLWGPGTLVTVSS
VL: DVVMTQTPASVSAPVGGTVTINCQASESIYSNLAWYQQKPGQPPKLLIYGASTLESGVPSRVKGSGYGTQFTLTISDLECADAATYYCQQYYGSSSTAFTFGGGTKVEIK
Regarding B4, the “IC50, Jurkat NFAT-Luc T cell activation” value in [1] was 0.0735 mg/L; in test [2], 0.0605 mg/L; in [3] it was 0.0719 mg/L; in test [20], 0.248 mg/L; in test [21] it was 0.119 mg/L; in [23], 0.0759 mg/L. The results for the “IC50, Jurkat NFAT-Luc T cell activation” value in [4] and in test [24] were 0.0765 mg/L and 0.0769 mg/L, respectively. Besides, the “IC50 (read off the curve)” value in [32] was about 0.03 microgram/mL.
